Source: patent US20140087995A1 (published 2014)
Numbered stars: 1 amine (or outer) side, 2 acyl side, 3 side chain; on linkers, the order of the positions; unused ones are H or OH. Bridge positions count the residues as written; N and C are the ends. Side chains are listed from the residue outwards. Ends that are not written are not given here. * marks the point of attachment. C20 diacid = O=C(O)CCCCCCCCCCCCCCCCCCC(=O)*; γGlu = O=C(O)[C@H](CCC(=O)[*:2])N[*:1]

T1: human calcitonin receptor (human, UniProt P30988 25-474)
T1 construct: whole, on cells; Assay used cell membranes, not intact cells; also called hCTR; hCT
T1 sequence (looked up): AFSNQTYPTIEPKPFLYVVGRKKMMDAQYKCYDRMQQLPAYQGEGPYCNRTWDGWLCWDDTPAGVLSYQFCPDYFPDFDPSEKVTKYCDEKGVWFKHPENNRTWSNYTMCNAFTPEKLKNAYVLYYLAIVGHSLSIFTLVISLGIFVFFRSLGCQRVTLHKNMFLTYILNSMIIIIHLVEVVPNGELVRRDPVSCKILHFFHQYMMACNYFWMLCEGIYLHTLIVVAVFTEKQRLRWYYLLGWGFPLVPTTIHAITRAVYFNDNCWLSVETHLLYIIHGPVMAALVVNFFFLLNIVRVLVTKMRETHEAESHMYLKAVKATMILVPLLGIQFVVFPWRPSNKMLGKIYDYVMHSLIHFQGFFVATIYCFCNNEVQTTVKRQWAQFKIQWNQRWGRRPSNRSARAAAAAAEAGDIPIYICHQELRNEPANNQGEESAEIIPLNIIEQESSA

T2: human amylin receptor (amylin 3(a) receptor: human calcitonin receptor with RAMP-3) (human, UniProt P30988 25-474; O60896 24-148)
T2 construct: whole, on cells; Assay used cell membranes of the Amylin 3(a)/CRE-luc BHK cells, not intact cells; also called hAmylin-R; hAmylinR
T2 sequence (looked up) 1: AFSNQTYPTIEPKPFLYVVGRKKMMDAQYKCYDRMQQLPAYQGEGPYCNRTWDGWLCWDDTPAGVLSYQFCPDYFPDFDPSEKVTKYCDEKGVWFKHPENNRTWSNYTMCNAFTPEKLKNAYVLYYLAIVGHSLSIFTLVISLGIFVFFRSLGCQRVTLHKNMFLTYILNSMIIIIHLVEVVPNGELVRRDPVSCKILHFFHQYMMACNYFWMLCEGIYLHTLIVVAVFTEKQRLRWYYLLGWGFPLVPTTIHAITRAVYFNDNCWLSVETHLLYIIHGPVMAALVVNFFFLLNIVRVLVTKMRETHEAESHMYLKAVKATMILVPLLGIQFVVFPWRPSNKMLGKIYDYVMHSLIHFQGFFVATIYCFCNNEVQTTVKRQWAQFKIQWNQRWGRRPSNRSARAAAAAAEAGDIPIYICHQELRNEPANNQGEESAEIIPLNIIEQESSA
T2 sequence (looked up) 2: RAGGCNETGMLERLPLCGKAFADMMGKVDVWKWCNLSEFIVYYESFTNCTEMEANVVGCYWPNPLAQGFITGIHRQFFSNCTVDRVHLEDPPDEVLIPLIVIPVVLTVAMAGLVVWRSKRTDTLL


Experiments:
[1] = molecular target: T1, human calcitonin receptor; assay: ratio IC50 hCTR / IC50 hAmylin-R (reference: human amylin receptor), SPA competition assays
Procedure, shortened: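 Membranes (35 ng/μL final) + SPA beads, 50 mM Hepes pH 7.4 buffer with 1 mM CaCl2, 5 mM MgCl₂, 0.1% OA, 0.02% Tween20; 120 min, 25° C, shaking; centrifuged, counted; IC₅₀ by one-site binding competition.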

[2] = molecular target: T1, human calcitonin receptor; assay: SPA competition with 125I-calcitonin on membranes of BHK cells with human calcitonin receptor (Assay VII)
Procedure, shortened: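 BHK hCTR membranes 35 ng/μL + SPA beads 0.05 mg/well; buffer 50 mM Hepes pH 7.4, 1 mM CaCl2, 5 mM MgCl₂, 0.1% OA, 0.02% Tween20. 120 min, 25° C., shaking. Scintillation count; IC50 by one-site binding competition.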

[3] = molecular target: T2, human amylin receptor (amylin 3(a) …); assay: SPA competition with 125I-rat amylin on membranes of BHK cells with human calcitonin receptor and RAMP-3 (Assay V)
Procedure, shortened: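 SPA beads + BHK amylin 3(a)/CRE-luc membranes, 35 ng/μL final; buffer 50 mM Hepes pH 7.4, 1 mM CaCl2, 5 mM MgCl₂, 0.1% OA, 0.02% Tween20. 120 min, 25° C, shaken; scintillation count. IC₅₀ by one-site binding competition fit, taken as receptor affinity.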

Row | Binder | Ratio hCT/hAmylin binding [1] | IC50 [2] | IC50 [3]
1 | K([γGlu-C20 diacid])CNTATCATQRLANFLRHSSPNFGAIPSSTNVGRNTY-NH2 (disulfide 2-7; N-terminus assumed; SMILES CC[C@H](C)[C@H](NC(=O)[C@H](C)NC(=O)CNC(=O)[C@H](Cc1ccccc1)NC(=O)[C@H](CC(N)=O)NC(=O)[C@@H]1CCCN1C(=O)[C@H](CO)NC(=O)[C@H](CO)NC(=O)[C@H](Cc1c[nH]cn1)NC(=O)[C@H](CCCNC(=N)N)NC(=O)[C@H](CC(C)C)NC(=O)[C@H](Cc1ccccc1)NC(=O)[C@H](CC(N)=O)NC(=O)[C@H](C)NC(=O)[C@H](CC(C)C)NC(=O)[C@H](CCCNC(=N)N)NC(=O)[C@H](CCC(N)=O)NC(=O)[C@@H](NC(=O)[C@H](C)NC(=O)[C@@H]1CSSC[C@H](NC(=O)[C@@H](N)CCCCNC(=O)CC[C@H](NC(=O)CCCCCCCCCCCCCCCCCCC(=O)O)C(=O)O)C(=O)N[C@@H](CC(N)=O)C(=O)N[C@@H]([C@@H](C)O)C(=O)N[C@@H](C)C(=O)N[C@@H]([C@@H](C)O)C(=O)N1)[C@@H](C)O)C(=O)N1CCC[C@H]1C(=O)N[C@@H](CO)C(=O)N[C@@H](CO)C(=O)N[C@H](C(=O)N[C@@H](CC(N)=O)C(=O)N[C@H](C(=O)NCC(=O)N[C@@H](CCCNC(=N)N)C(=O)N[C@@H](CC(N)=O)C(=O)N[C@H](C(=O)N[C@@H](Cc1ccc(O)cc1)C(N)=O)[C@@H](C)O)C(C)C)[C@@H](C)O, also called compound 79) [N^ε1-[(4S)-4-carboxy-4-(19-carboxynonadecanoylamino)butanoyl]-[Arg17,Pro21,Pro27,Arg34]-h-amylin] | 46.1 | 36.4 nM | 0.79 nM
2 | K([γGlu-C20 diacid])CNTATCATQRLANFLRHSSPNFGAIPSSTNVGHNTY-NH2 (disulfide 2-7; N-terminus assumed; SMILES CC[C@H](C)[C@H](NC(=O)[C@H](C)NC(=O)CNC(=O)[C@H](Cc1ccccc1)NC(=O)[C@H](CC(N)=O)NC(=O)[C@@H]1CCCN1C(=O)[C@H](CO)NC(=O)[C@H](CO)NC(=O)[C@H](Cc1c[nH]cn1)NC(=O)[C@H](CCCNC(=N)N)NC(=O)[C@H](CC(C)C)NC(=O)[C@H](Cc1ccccc1)NC(=O)[C@H](CC(N)=O)NC(=O)[C@H](C)NC(=O)[C@H](CC(C)C)NC(=O)[C@H](CCCNC(=N)N)NC(=O)[C@H](CCC(N)=O)NC(=O)[C@@H](NC(=O)[C@H](C)NC(=O)[C@@H]1CSSC[C@H](NC(=O)[C@@H](N)CCCCNC(=O)CC[C@H](NC(=O)CCCCCCCCCCCCCCCCCCC(=O)O)C(=O)O)C(=O)N[C@@H](CC(N)=O)C(=O)N[C@@H]([C@@H](C)O)C(=O)N[C@@H](C)C(=O)N[C@@H]([C@@H](C)O)C(=O)N1)[C@@H](C)O)C(=O)N1CCC[C@H]1C(=O)N[C@@H](CO)C(=O)N[C@@H](CO)C(=O)N[C@H](C(=O)N[C@@H](CC(N)=O)C(=O)N[C@H](C(=O)NCC(=O)N[C@@H](Cc1c[nH]cn1)C(=O)N[C@@H](CC(N)=O)C(=O)N[C@H](C(=O)N[C@@H](Cc1ccc(O)cc1)C(N)=O)[C@@H](C)O)C(C)C)[C@@H](C)O, also called compound 77) [N^ε1-[(4S)-4-carboxy-4-(19-carboxynonadecanoylamino)butanoyl]-[Arg17,Pro21,Pro27,His34]-h-amylin] | 118 | 50.7 nM | 0.428 nM

Next, values leading:

Row | Ratio hCT/hAmylin binding [1] | IC50 [2] | IC50 [3] | Binder
3 | 151 | 42.5 nM | 0.281 nM | K([γGlu-C20 diacid])CNTATCATQRLADFLRHSSPNFGAIPSSTNVGPRTY-NH2 (disulfide 2-7; N-terminus assumed; SMILES CC[C@H](C)[C@H](NC(=O)[C@H](C)NC(=O)CNC(=O)[C@H](Cc1ccccc1)NC(=O)[C@H](CC(N)=O)NC(=O)[C@@H]1CCCN1C(=O)[C@H](CO)NC(=O)[C@H](CO)NC(=O)[C@H](Cc1c[nH]cn1)NC(=O)[C@H](CCCNC(=N)N)NC(=O)[C@H](CC(C)C)NC(=O)[C@H](Cc1ccccc1)NC(=O)[C@H](CC(=O)O)NC(=O)[C@H](C)NC(=O)[C@H](CC(C)C)NC(=O)[C@H](CCCNC(=N)N)NC(=O)[C@H](CCC(N)=O)NC(=O)[C@@H](NC(=O)[C@H](C)NC(=O)[C@@H]1CSSC[C@H](NC(=O)[C@@H](N)CCCCNC(=O)CC[C@H](NC(=O)CCCCCCCCCCCCCCCCCCC(=O)O)C(=O)O)C(=O)N[C@@H](CC(N)=O)C(=O)N[C@@H]([C@@H](C)O)C(=O)N[C@@H](C)C(=O)N[C@@H]([C@@H](C)O)C(=O)N1)[C@@H](C)O)C(=O)N1CCC[C@H]1C(=O)N[C@@H](CO)C(=O)N[C@@H](CO)C(=O)N[C@H](C(=O)N[C@@H](CC(N)=O)C(=O)N[C@H](C(=O)NCC(=O)N1CCC[C@H]1C(=O)N[C@@H](CCCNC(=N)N)C(=O)N[C@H](C(=O)N[C@@H](Cc1ccc(O)cc1)C(N)=O)[C@@H](C)O)C(C)C)[C@@H](C)O)
4 | 28.5 | 6.62 nM | 0.232 nM | K([γGlu-C20 diacid])CNTATCATQRLAEFLRHSSPNFGAIPSSTNVGRETY-NH2 (disulfide 2-7; N-terminus assumed; SMILES CC[C@H](C)[C@H](NC(=O)[C@H](C)NC(=O)CNC(=O)[C@H](Cc1ccccc1)NC(=O)[C@H](CC(N)=O)NC(=O)[C@@H]1CCCN1C(=O)[C@H](CO)NC(=O)[C@H](CO)NC(=O)[C@H](Cc1c[nH]cn1)NC(=O)[C@H](CCCNC(=N)N)NC(=O)[C@H](CC(C)C)NC(=O)[C@H](Cc1ccccc1)NC(=O)[C@H](CCC(=O)O)NC(=O)[C@H](C)NC(=O)[C@H](CC(C)C)NC(=O)[C@H](CCCNC(=N)N)NC(=O)[C@H](CCC(N)=O)NC(=O)[C@@H](NC(=O)[C@H](C)NC(=O)[C@@H]1CSSC[C@H](NC(=O)[C@@H](N)CCCCNC(=O)CC[C@H](NC(=O)CCCCCCCCCCCCCCCCCCC(=O)O)C(=O)O)C(=O)N[C@@H](CC(N)=O)C(=O)N[C@@H]([C@@H](C)O)C(=O)N[C@@H](C)C(=O)N[C@@H]([C@@H](C)O)C(=O)N1)[C@@H](C)O)C(=O)N1CCC[C@H]1C(=O)N[C@@H](CO)C(=O)N[C@@H](CO)C(=O)N[C@H](C(=O)N[C@@H](CC(N)=O)C(=O)N[C@H](C(=O)NCC(=O)N[C@@H](CCCNC(=N)N)C(=O)N[C@@H](CCC(=O)O)C(=O)N[C@H](C(=O)N[C@@H](Cc1ccc(O)cc1)C(N)=O)[C@@H](C)O)C(C)C)[C@@H](C)O)
5 | 26.4 | 26.1 nM | 0.992 nM | K([γGlu-C20 diacid])CNTATCATQRLAEFLRHSSPNFGAIPSSTNVGSHTY-NH2 (disulfide 2-7; N-terminus assumed; SMILES CC[C@H](C)[C@H](NC(=O)[C@H](C)NC(=O)CNC(=O)[C@H](Cc1ccccc1)NC(=O)[C@H](CC(N)=O)NC(=O)[C@@H]1CCCN1C(=O)[C@H](CO)NC(=O)[C@H](CO)NC(=O)[C@H](Cc1c[nH]cn1)NC(=O)[C@H](CCCNC(=N)N)NC(=O)[C@H](CC(C)C)NC(=O)[C@H](Cc1ccccc1)NC(=O)[C@H](CCC(=O)O)NC(=O)[C@H](C)NC(=O)[C@H](CC(C)C)NC(=O)[C@H](CCCNC(=N)N)NC(=O)[C@H](CCC(N)=O)NC(=O)[C@@H](NC(=O)[C@H](C)NC(=O)[C@@H]1CSSC[C@H](NC(=O)[C@@H](N)CCCCNC(=O)CC[C@H](NC(=O)CCCCCCCCCCCCCCCCCCC(=O)O)C(=O)O)C(=O)N[C@@H](CC(N)=O)C(=O)N[C@@H]([C@@H](C)O)C(=O)N[C@@H](C)C(=O)N[C@@H]([C@@H](C)O)C(=O)N1)[C@@H](C)O)C(=O)N1CCC[C@H]1C(=O)N[C@@H](CO)C(=O)N[C@@H](CO)C(=O)N[C@H](C(=O)N[C@@H](CC(N)=O)C(=O)N[C@H](C(=O)NCC(=O)N[C@@H](CO)C(=O)N[C@@H](Cc1c[nH]cn1)C(=O)N[C@H](C(=O)N[C@@H](Cc1ccc(O)cc1)C(N)=O)[C@@H](C)O)C(C)C)[C@@H](C)O)
